In article PMC13648279:

How the values were obtained:
[1] = target: MbTEC^PH (PH domain of Monosiga brevicollis TEC, residues 1-174), labelled with Atto488; assay: fluorescence anisotropy; conditions: parent: 4.0 ± 1.3 µM
[2] = target: MbTEC^PH (R28E) (Monosiga brevicollis MX1); assay: FP; conditions: domain or fragment
[3] = target: MbTEC^PH (R28E) (Monosiga brevicollis MX1); assay: fluorescence polarisation; fluorescence anisotropy; MbTEC^32K constructs serially diluted into 200 nM Atto488-labelled PH domain; 20 mM HEPES pH 7.4, 150 mM NaCl, 2% glycerol, 1 mM TCEP; 21 °C; one-site binding model
[4] = target: MbTEC^PH (PH domain of Monosiga brevicollis TEC, residues 1-174), labelled with Atto488 (Monosiga brevicollis MX1); assay: as above

MbTEC^32K (SH3-SH2-kinase module of Monosiga brevicollis TEC, residues 229-667) Y579D; R581E
Kd [1]: 195 µM

MbTEC^32K (SH3-SH2-kinase module of Monosiga brevicollis TEC, residues 229-667)
Kd [2]: 22.4 µM

MbTEC^32K (SH3-SH2-kinase module of Monosiga brevicollis TEC, residues 229-667) (domain or fragment)
fold weakening of binding against wild-type MbTEC^PH [3]: 5 fold | Kd [4]: 4 µM
